# Results published in paper PMC12102759 (2025).
# B1: AXIN1 peptide 237-252 (Axin-1), 16-mer library wild type / PP2A B56 (PPP2R5A B56 domain, residues 1-486) (parent complex)
# chain 1: YLPTLNEDEEWKADQD
# chain 2: not shown
# B2: TPTE2 peptide 92-107 (Phosphatidylinositol 3,4,5-trisphosphate 3-phosphatase TPTE2), 16-mer library wild type / TLN1 PTB (TLN1 Phosphotyrosine-binding (PTB) domain, residues 309-401) (parent complex)
# chain 1: LADLIFTDSKLYIPLE
# chain 2: GVSFFLVKEKMKGKNKLVPRLLGITKECVMRVDEKTKEVIQEWNLTNIKRWAASPKSFTLDFGDYQDGYYSVQTTEGEQIAQLIAGYIDIILK
# Variants of: B1
# Assay: proteomic peptide phage display deep mutational scan (ProP-PD DMS): M13 P8 16-mer library selected against immobilised GST-tagged bait for four days (rounds), NGS of the eluted pools per day and pseudo-replica; bait immobilised on MaxiSorp plates (10 µg), library pre-cleared on GST, 2 h binding at 4 °C, five washes; one round per day, days 1-4; value from days 2 and 3
row,Variant,screen value
1,chain 1 Q15N,"0.00887 average fractional NGS count over selection days 2 and 3 (reads of this peptide / all reads for the bait, averaged over …"
2,chain 1 Q15T,"0.0102 average fractional NGS count over selection days 2 and 3 (reads of this peptide / all reads for the bait, averaged over …"
3,chain 1 Q15V,"0.000515 average fractional NGS count over selection days 2 and 3 (reads of this peptide / all reads for the bait, averaged over …"
4,chain 1 Q15A,"0.00159 average fractional NGS count over selection days 2 and 3 (reads of this peptide / all reads for the bait, averaged over …"
5,chain 1 Q15S,"0.00176 average fractional NGS count over selection days 2 and 3 (reads of this peptide / all reads for the bait, averaged over …"
6,chain 1 Q15R,"0.000634 average fractional NGS count over selection days 2 and 3 (reads of this peptide / all reads for the bait, averaged over …"
7,chain 1 Q15W,"0.00273 average fractional NGS count over selection days 2 and 3 (reads of this peptide / all reads for the bait, averaged over …"
8,chain 1 Q15G,"0.00117 average fractional NGS count over selection days 2 and 3 (reads of this peptide / all reads for the bait, averaged over …"
9,chain 1 E9Q,"0.0159 average fractional NGS count over selection days 2 and 3 (reads of this peptide / all reads for the bait, averaged over …"
10,chain 1 E9G,"0.000581 average fractional NGS count over selection days 2 and 3 (reads of this peptide / all reads for the bait, averaged over …"
11,chain 1 E9W,"0.00436 average fractional NGS count over selection days 2 and 3 (reads of this peptide / all reads for the bait, averaged over …"
12,chain 1 E9P,"0.00261 average fractional NGS count over selection days 2 and 3 (reads of this peptide / all reads for the bait, averaged over …"
13,chain 1 E9A,"0.00203 average fractional NGS count over selection days 2 and 3 (reads of this peptide / all reads for the bait, averaged over …"
14,chain 1 E9S,"0.00105 average fractional NGS count over selection days 2 and 3 (reads of this peptide / all reads for the bait, averaged over …"
15,chain 1 E9T,"0.00244 average fractional NGS count over selection days 2 and 3 (reads of this peptide / all reads for the bait, averaged over …"
16,chain 1 E9I,"0.00451 average fractional NGS count over selection days 2 and 3 (reads of this peptide / all reads for the bait, averaged over …"
17,chain 1 E9R,"0.000957 average fractional NGS count over selection days 2 and 3 (reads of this peptide / all reads for the bait, averaged over …"
18,chain 1 E9N,"0.000581 average fractional NGS count over selection days 2 and 3 (reads of this peptide / all reads for the bait, averaged over …"
19,chain 1 D14T,"0.00142 average fractional NGS count over selection days 2 and 3 (reads of this peptide / all reads for the bait, averaged over …"
20,chain 1 D14I,"0.000947 average fractional NGS count over selection days 2 and 3 (reads of this peptide / all reads for the bait, averaged over …"
21,chain 1 D14N,"0.00275 average fractional NGS count over selection days 2 and 3 (reads of this peptide / all reads for the bait, averaged over …"
22,chain 1 D14Y,"0.00582 average fractional NGS count over selection days 2 and 3 (reads of this peptide / all reads for the bait, averaged over …"

row,Variant,screen value
1,chain 1 D14P,"0.00181 average fractional NGS count over selection days 2 and 3 (reads of this peptide / all reads for the bait, averaged over …"
2,chain 1 D14V,"0.00647 average fractional NGS count over selection days 2 and 3 (reads of this peptide / all reads for the bait, averaged over …"
3,chain 1 D14E,"0.00475 average fractional NGS count over selection days 2 and 3 (reads of this peptide / all reads for the bait, averaged over …"
4,chain 1 D14S,"0.00823 average fractional NGS count over selection days 2 and 3 (reads of this peptide / all reads for the bait, averaged over …"
5,chain 1 D14F,"0.0121 average fractional NGS count over selection days 2 and 3 (reads of this peptide / all reads for the bait, averaged over …"
6,chain 1 D14A,"0.00375 average fractional NGS count over selection days 2 and 3 (reads of this peptide / all reads for the bait, averaged over …"
7,chain 1 D14Q,"0.00055 average fractional NGS count over selection days 2 and 3 (reads of this peptide / all reads for the bait, averaged over …"
8,chain 1 D14G,"0.00106 average fractional NGS count over selection days 2 and 3 (reads of this peptide / all reads for the bait, averaged over …"
9,chain 1 N6Q,"0.00501 average fractional NGS count over selection days 2 and 3 (reads of this peptide / all reads for the bait, averaged over …"
10,chain 1 N6Y,"0.000368 average fractional NGS count over selection days 2 and 3 (reads of this peptide / all reads for the bait, averaged over …"
11,chain 1 N6L,"0.00123 average fractional NGS count over selection days 2 and 3 (reads of this peptide / all reads for the bait, averaged over …"
12,chain 1 N6W,"0.000792 average fractional NGS count over selection days 2 and 3 (reads of this peptide / all reads for the bait, averaged over …"
13,chain 1 N6H,"0.0272 average fractional NGS count over selection days 2 and 3 (reads of this peptide / all reads for the bait, averaged over …"
14,chain 1 N6E,"0.00107 average fractional NGS count over selection days 2 and 3 (reads of this peptide / all reads for the bait, averaged over …"
15,chain 1 N6T,"0.00301 average fractional NGS count over selection days 2 and 3 (reads of this peptide / all reads for the bait, averaged over …"
16,chain 1 N6A,"0.00273 average fractional NGS count over selection days 2 and 3 (reads of this peptide / all reads for the bait, averaged over …"
17,chain 1 N6M,"0.000248 average fractional NGS count over selection days 2 and 3 (reads of this peptide / all reads for the bait, averaged over …"
18,chain 1 N6S,"0.0193 average fractional NGS count over selection days 2 and 3 (reads of this peptide / all reads for the bait, averaged over …"
19,chain 1 N6F,"0.000398 average fractional NGS count over selection days 2 and 3 (reads of this peptide / all reads for the bait, averaged over …"
20,chain 1 N6I,"0.00196 average fractional NGS count over selection days 2 and 3 (reads of this peptide / all reads for the bait, averaged over …"
21,chain 1 N6P,"0.0105 average fractional NGS count over selection days 2 and 3 (reads of this peptide / all reads for the bait, averaged over …"

# Variants of: B2
# Assay: as above
row,Variant,screen value
1,chain 1 L11I,"0.00106 average fractional NGS count over selection days 2 and 3 (reads of this peptide / all reads for the bait, averaged over …"
2,chain 1 K10G,"0.000514 average fractional NGS count over selection days 2 and 3 (reads of this peptide / all reads for the bait, averaged over …"
3,chain 1 K10S,"0.000449 average fractional NGS count over selection days 2 and 3 (reads of this peptide / all reads for the bait, averaged over …"
4,chain 1 K10T,"0.000653 average fractional NGS count over selection days 2 and 3 (reads of this peptide / all reads for the bait, averaged over …"
5,chain 1 T7M,"0.000146 average fractional NGS count over selection days 2 and 3 (reads of this peptide / all reads for the bait, averaged over …"
6,chain 1 T7Q,"0.000521 average fractional NGS count over selection days 2 and 3 (reads of this peptide / all reads for the bait, averaged over …"
7,chain 1 T7N,"0.000232 average fractional NGS count over selection days 2 and 3 (reads of this peptide / all reads for the bait, averaged over …"
8,chain 1 L15I,"0.00147 average fractional NGS count over selection days 2 and 3 (reads of this peptide / all reads for the bait, averaged over …"
9,chain 1 L15S,"0.000436 average fractional NGS count over selection days 2 and 3 (reads of this peptide / all reads for the bait, averaged over …"
10,chain 1 L15R,"0.0012 average fractional NGS count over selection days 2 and 3 (reads of this peptide / all reads for the bait, averaged over …"
11,chain 1 L15A,"0.000297 average fractional NGS count over selection days 2 and 3 (reads of this peptide / all reads for the bait, averaged over …"
12,chain 1 L15M,"0.00539 average fractional NGS count over selection days 2 and 3 (reads of this peptide / all reads for the bait, averaged over …"
13,chain 1 L15G,"0.000168 average fractional NGS count over selection days 2 and 3 (reads of this peptide / all reads for the bait, averaged over …"
14,chain 1 D8E,"0.00151 average fractional NGS count over selection days 2 and 3 (reads of this peptide / all reads for the bait, averaged over …"
15,chain 1 E16T,"0.00391 average fractional NGS count over selection days 2 and 3 (reads of this peptide / all reads for the bait, averaged over …"
16,chain 1 E16D,"0.00467 average fractional NGS count over selection days 2 and 3 (reads of this peptide / all reads for the bait, averaged over …"

row,Variant,screen value
1,chain 1 E16K,"0.000641 average fractional NGS count over selection days 2 and 3 (reads of this peptide / all reads for the bait, averaged over …"
2,chain 1 E16W,"0.00358 average fractional NGS count over selection days 2 and 3 (reads of this peptide / all reads for the bait, averaged over …"
3,chain 1 E16P,"0.00113 average fractional NGS count over selection days 2 and 3 (reads of this peptide / all reads for the bait, averaged over …"
4,chain 1 E16Y,"0.00177 average fractional NGS count over selection days 2 and 3 (reads of this peptide / all reads for the bait, averaged over …"
5,chain 1 I5S,"0.000525 average fractional NGS count over selection days 2 and 3 (reads of this peptide / all reads for the bait, averaged over …"
6,chain 1 I5T,"0.000326 average fractional NGS count over selection days 2 and 3 (reads of this peptide / all reads for the bait, averaged over …"
7,chain 1 I5N,"0.00116 average fractional NGS count over selection days 2 and 3 (reads of this peptide / all reads for the bait, averaged over …"
8,chain 1 I5L,"0.000706 average fractional NGS count over selection days 2 and 3 (reads of this peptide / all reads for the bait, averaged over …"
9,chain 1 I5A,"0.00216 average fractional NGS count over selection days 2 and 3 (reads of this peptide / all reads for the bait, averaged over …"
10,chain 1 D3E,"0.000596 average fractional NGS count over selection days 2 and 3 (reads of this peptide / all reads for the bait, averaged over …"
11,chain 1 L4M,"0.000697 average fractional NGS count over selection days 2 and 3 (reads of this peptide / all reads for the bait, averaged over …"
12,chain 1 L4D,"0.0012 average fractional NGS count over selection days 2 and 3 (reads of this peptide / all reads for the bait, averaged over …"
13,chain 1 L4E,"0.000131 average fractional NGS count over selection days 2 and 3 (reads of this peptide / all reads for the bait, averaged over …"
14,chain 1 A2S,"0.000833 average fractional NGS count over selection days 2 and 3 (reads of this peptide / all reads for the bait, averaged over …"
15,chain 1 A2Q,"0.000351 average fractional NGS count over selection days 2 and 3 (reads of this peptide / all reads for the bait, averaged over …"
16,chain 1 A2Y,"0.00133 average fractional NGS count over selection days 2 and 3 (reads of this peptide / all reads for the bait, averaged over …"
